Results: the supplement of paper PMC11246515
± gives the standard deviation of the averaged measurements.

Experiment: total protein half-life in vivo (active degradation + dilution); higher = more stable protein
[1] = E. coli NCM3722 delta-clpP delta-lon delta-hslV, growth: N-lim chemostat, doubling time 6 h
[2] = E. coli NCM3722 delta-clpP, growth: N-lim chemostat, doubling time 6 h
[3] = E. coli NCM3722 delta-hslV, growth: N-lim chemostat, doubling time 6 h
[4] = E. coli NCM3722 delta-lon, growth: N-lim chemostat, doubling time 6 h
[5] = E. coli NCM3722 delta-smpB, growth: N-lim chemostat, doubling time 6 h
[6] = wild type E. coli NCM3722, growth: C-lim chemostat, doubling time 3 h
[7] = wild type E. coli NCM3722, growth: C-lim chemostat, doubling time 6 h
[8] = wild type E. coli NCM3722, growth: C-lim chemostat, doubling time 12 h
[9] = wild type E. coli NCM3722, growth: N-lim chemostat, doubling time 6 h
[10] = wild type E. coli NCM3722, growth: N-lim chemostat, doubling time 12 h
[11] = wild type E. coli NCM3722, growth: P-lim chemostat, doubling time 6 h
[12] = wild type E. coli NCM3722, growth: P-lim chemostat, doubling time 12 h

Row | Sequence | total protein half-life in vivo [1] [h] | total protein half-life in vivo [2] [h] | total protein half-life in vivo [3] [h] | total protein half-life in vivo [4] [h] | total protein half-life in vivo [5] [h] | total protein half-life in vivo [6] [h] | total protein half-life in vivo [7] [h] | total protein half-life in vivo [8] [h] | total protein half-life in vivo [9] [h] | total protein half-life in vivo [10] [h] | total protein half-life in vivo [11] [h] | total protein half-life in vivo [12] [h]
1 | MLVSSNVTMQFGSKPLFENISVKFGGGNRYGLIGANGSGKSTFMKILGGDLEPTLGNVSLDPNERIGKLRQDQFAFEEFTVLDTVIMGHKELWEVKQERDRIYALPEMSEEDGYKVADLEVKYGEMDGYSAEARAGELLLGVGIPVEQHYGPMSEVAPGWKLRVLLAQALFADPDILLLDEPTNNLDIDTIRWLEQVLNERDSTMIIISHDRHFLNMVCTHMADLDYGELRVYPGNYDEYMTAATQARERLLADNAKKKAQIAELQSFVSRFSANASKSRQATSRARQIDKIKLEEVKASSRQNPFIRFEQDKKLFRNALEVEGLTKGFDNGPLFKNLNLLLEVGEKLAVLGTNGVGKSTLLKTLVGDLQPDSGTVKWSENARIGYYAQDHEYEFENDLTVFEWMSQWKQEGDDEQAVRSILGRLLFSQDDIKKPAKVLSGGEKGRMLFGKLMMQKPNILIMDEPTNHLDMESIESLNMALELYQGTLIFVSHDREFVSSLATRILEITPERVIDFSGNYEDYLRSKGIE [P0A9U3] | 5.14 ± 0.66 | 4.36 ± 0.29 | 4.35 ± 0.22 | 4.4 ± 0.35 | 4.27 ± 0.19 | 2.9 ± 0.28 | 5.571 ± 0.029 | 10.1 ± 0.12 | 4.218 ± 0.03 | 6.54 ± 0.14 | 5.08 ± 0.85 | 8.98 ± 1.4
2 | MNQRNASMTVIGAGSYGTALAITLARNGHEVVLWGHDPEHIATLERDRCNAAFLPDVPFPDTLHLESDLATALAASRNILVVVPSHVFGEVLRQIKPLMRPDARLVWATKGLEAETGRLLQDVAREALGDQIPLAVISGPTFAKELAAGLPTAISLASTDQTFADDLQQLLHCGKSFRVYSNPDFIGVQLGGAVKNVIAIGAGMSDGIGFGANARTALITRGLAEMSRLGAALGADPATFMGMAGLGDLVLTCTDNQSRNRRFGMMLGQGMDVQSAQEKIGQVVEGYRNTKEVRELAHRFGVEMPITEEIYQVLYCGKNAREAALTLLGRARKDERSSH [P0A6S7] | 5.183 ± 0.013 | 5.35 ± 0.8 | 4.8 ± 0.097 | 4.88 ± 0.27 | 4.73 ± 0.34 | 3.3022 ± 0.00023 | 5.8 ± 0.063 | 10.8 ± 1.8 | 4.99 ± 0.28 | 8.16 | 5.73 ± 0.15 | 12.7 ± 2.1
3 | MKFFALFIYRPVATILLSVAITLCGILGFRMLPVAPLPQVDFPVIIVSASLPGASPETMASSVATPLERSLGRIAGVSEMTSSSSLGSTRIILQFDFDRDINGAARDVQAAINAAQSLLPSGMPSRPTYRKANPSDAPIMILTLTSDTYSQGELYDFASTQLAPTISQIDGVGDVDVGGSSLPAVRVGLNPQALFNQGVSLDDVRTAVSNANVRKPQGALEDGTHRWQIQTNDELKTAAEYQPLIIHYNNGGAVRLGDVATVTDSVQDVRNAGMTNAKPAILLMIRKLPEANIIQTVDSIRAKLPELQETIPAAIDLQIAQDRSPTIRASLEEVEQTLIISVALVILVVFLFLRSGRATIIPAVSVPVSLIGTFAAMYLCGFSLNNLSLMALTIATGFVVDDAIVVLENIARHLEAGMKPLQAALQGTREVGFTVLSMSLSLVAVFLPLLLMGGLPGRLLREFAVTLSVAIGISLLVSLTLTPMMCGWMLKASKPREQKRLRGFGRMLVALQQGYGKSLKWVLNHTRLVGVVLLGTIALNIWLYISIPKTFFPEQDTGVLMGGIQADQSISFQAMRGKLQDFMKIIRDDPAVDNVTGFTGGSRVNSGMMFITLKPRDERSETAQQIIDRLRVKLAKEPGANLFLMAVQDIRVGGRQSNASYQYTLLSDDLAALREWEPKIRKKLATLPELADVNSDQQDNGAEMNLVYDRDTMARLGIDVQAANSLLNNAFGQRQISTIYQPMNQYKVVMEVDPRYTQDISALEKMFVINNEGKAIPLSYFAKWQPANAPLSVNHQGLSAASTISFNLPTGKSLSDASAAIDRAMTQLGVPSTVRGSFAGTAQVFQETMNSQVILIIAAIATVYIVLGILYESYVHPLTILSTLPSAGVGALLALELFNAPFSLIALIGIMLLIGIVKKNAIMMVDFALEAQRHGNLTPQEAIFQACLLRFRPIMMTTLAALFGALPLVLSGGDGSELRQPLGITIVGGLVMSQLLTLYTTPVVYLFFDRLRLRFSRKPKQTVTE | 6.8 ± 0.5 | 6.49 ± 0.36 | 5.92 ± 0.38 | 7.42 ± 0.68 | 5.44 ± 0.14 | 3.64 ± 0.29 | 6.08 ± 1 | 14.4 ± 0.89 | 5.78 ± 0.89 | 13.8 ± 0.8 | 6.3 ± 0.2 | 12.2 ± 0.66
4 | MDQKQIEEIVRSVMASMGQAAPAPSEAKCATTNCAAPVTSESCALDLGSAEAKAWIGVENPHRADVLTELRRSTVARVCTGRAGPRPRTQALLRFLADHSRSKDTVLKEVPEEWVKAQGLLEVRSEISDKNLYLTRPDMGRRLCAEAVEALKAQCVANPDVQVVISDGLSTDAITVNYEEILPPLMAGLKQAGLKVGTPFFVRYGRVKIEDQIGEILGAKVVILLVGERPGLGQSESLSCYAVYSPRMATTVEADRTCISNIHQGGTPPVEAAAVIVDLAKRMLEQKASGINMTR | 5.05 ± 0.91 | 3.65 ± 0.13 | 3.19 ± 0.053 | 4.21 ± 0.95 | 3.11 ± 0.17 | 2.6 ± 0.1 | 5.43 ± 0.85 | 8.48 ± 0.82 | 3.41 ± 0.32 | 4.31 ± 0.15 | 4.69 ± 0.096 | 9.58 ± 0.56
5 | MSTLEQTIGNTPLVKLQRMGPDNGSEVWLKLEGNNPAGSVKDRAALSMIVEAEKRGEIKPGDVLIEATSGNTGIALAMIAALKGYRMKLLMPDNMSQERRAAMRAYGAELILVTKEQGMEGARDLALEMANRGEGKLLDQFNNPDNPYAHYTTTGPEIWQQTGGRITHFVSSMGTTGTITGVSRFMREQSKPVTIVGLQPEEGSSIPGIRRWPTEYLPGIFNASLVDEVLDIHQRDAENTMRELAVREGIFCGVSSGGAVAGALRVAKANPDAVVVAIICDRGDRYLSTGVFGEEHFSQGAGI | 6.17 ± 1.7 | 4.5 ± 0.098 | 4.55 ± 0.61 | 4.81 ± 0.087 | 4.19 ± 0.058 | 2.95 ± 0.34 | 6.01 ± 0.21 | 10.2 ± 0.28 | 4.66 ± 0.086 | 7.44 ± 0.39 | 5.64 ± 0.13 | 11.6 ± 0.56
